For this data set, the target named is Human ACLY, His-tagged, bacterially expressed and purified recombinant full length protein (UniProt P53396).
Chain of UniProt P53396 (P53396 whole entry): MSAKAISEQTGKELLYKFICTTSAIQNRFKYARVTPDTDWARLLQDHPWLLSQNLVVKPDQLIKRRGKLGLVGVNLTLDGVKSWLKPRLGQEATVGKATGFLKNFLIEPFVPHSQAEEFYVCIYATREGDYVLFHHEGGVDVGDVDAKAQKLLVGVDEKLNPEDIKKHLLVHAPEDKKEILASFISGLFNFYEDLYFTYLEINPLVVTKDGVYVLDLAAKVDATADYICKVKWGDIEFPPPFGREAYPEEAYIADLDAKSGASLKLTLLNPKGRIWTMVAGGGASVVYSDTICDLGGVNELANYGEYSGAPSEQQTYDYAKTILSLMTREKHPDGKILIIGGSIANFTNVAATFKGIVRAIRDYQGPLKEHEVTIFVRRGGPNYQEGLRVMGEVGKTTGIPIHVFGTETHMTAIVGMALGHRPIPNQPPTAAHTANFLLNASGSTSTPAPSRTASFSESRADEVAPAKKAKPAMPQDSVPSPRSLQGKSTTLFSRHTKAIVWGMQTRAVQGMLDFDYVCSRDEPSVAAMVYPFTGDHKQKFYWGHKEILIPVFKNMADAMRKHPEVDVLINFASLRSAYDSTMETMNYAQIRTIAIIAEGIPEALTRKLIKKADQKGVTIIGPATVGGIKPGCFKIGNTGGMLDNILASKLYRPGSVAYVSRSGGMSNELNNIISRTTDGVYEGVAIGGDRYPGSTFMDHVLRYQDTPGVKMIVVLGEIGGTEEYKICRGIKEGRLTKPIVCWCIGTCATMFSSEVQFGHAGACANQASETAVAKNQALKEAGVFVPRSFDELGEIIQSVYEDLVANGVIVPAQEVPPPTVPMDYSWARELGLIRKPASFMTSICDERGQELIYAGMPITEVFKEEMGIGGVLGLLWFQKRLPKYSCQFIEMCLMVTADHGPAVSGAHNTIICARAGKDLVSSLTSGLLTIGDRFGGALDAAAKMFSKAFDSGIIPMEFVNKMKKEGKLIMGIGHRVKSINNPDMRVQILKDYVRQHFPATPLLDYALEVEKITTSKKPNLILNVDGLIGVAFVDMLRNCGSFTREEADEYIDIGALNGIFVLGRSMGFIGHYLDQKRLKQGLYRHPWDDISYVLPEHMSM

For the substance Active recombinant Src kinase, the “ACLY tyrosine residues phosphorylated (phosphoproteomics)” value is “The three ACLY tyrosine residues, Y682, Y252, Y227, were common for Lyn and Src”.

These data come from US20220218659.
